{
  "source": "patent US20250289899A1",
  "about": "(Genmab, published 2025)",
  "key": {"[1]": {"target": "T1, human CD27, full length, on cells (T cells, transfected HEK293F cells, Daudi cells, NFκB-luc2/CD27 Jurkat … (human, UniProt P26842 20-240))", "T1 construct": "Residues 1-19 are stated to be the signal peptide; also called TNFRSF7", "T1 sequence": "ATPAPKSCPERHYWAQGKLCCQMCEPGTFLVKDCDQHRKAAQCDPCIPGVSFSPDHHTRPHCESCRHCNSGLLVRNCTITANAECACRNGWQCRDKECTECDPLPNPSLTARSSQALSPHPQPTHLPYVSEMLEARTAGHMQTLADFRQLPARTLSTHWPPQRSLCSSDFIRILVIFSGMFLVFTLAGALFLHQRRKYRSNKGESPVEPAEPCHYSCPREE", "test": "flow cytometry on T cells in human PBMC (endogenous CD27), PE goat anti-human IgG, median MFI PE", "experimental": "(§1) Non-binding control antibody IgG1-b12-FEAR was used as negative control antibody. *N.B. IgG1-CD27-A, -B, -C, -D and -E carried mutations F405L-L234F-L235E-D265A in the IgG Fc domain, which are functionally irrelevant in the context of this experiment.\n(§2) Cells were seeded in 96-Wells plates (100,000 cells per well; Greiner Bio-one, Cat #650180) for sequential incubations, with washing steps in between with FACS buffer, consisting of PBS (Lonza, Cat #BE17-517Q)+1% BSA (Roche, Cat #10735086001)+0.02% Sodium Azide (Bio-World, Cat #41920044-3). The following incubations were applied: antibody concentration series (0.0001-10 μg/mL final concentration) for 30 min at 4° C.; live/dead marker FVS510 (BD, Cat #564406, diluted 1:1,000 in PBS) for 20 min at RT; PE-labeled polyclonal goat anti-human IgG (Jackson Immuno Research, Cat #109-116-098, diluted 1:500) for 30 min at 4° C.; and anti-CD3 antibody for T-cell identification (anti-human CD3: BD, Cat #555335, diluted 1:10; anti-cyno CD3: Miltenyi, Cat #130-091-998, diluted 1:10) for 30 min at 4° C. All samples were analyzed on a FACSCelesta flow cytometer (BD) and FlowJo software. Data were processed and visualized using GraphPad Prism."}, "[2]": {"target": "T2, cynomolgus monkey CD27, full length, on cells (cynomolgus T cells, transfected HEK293F cells) (cynomolgus monkey (Macaca fascicularis), UniProt P26842 20-260 (human entry))", "T2 construct": "also called cyno CD27", "T2 chain": "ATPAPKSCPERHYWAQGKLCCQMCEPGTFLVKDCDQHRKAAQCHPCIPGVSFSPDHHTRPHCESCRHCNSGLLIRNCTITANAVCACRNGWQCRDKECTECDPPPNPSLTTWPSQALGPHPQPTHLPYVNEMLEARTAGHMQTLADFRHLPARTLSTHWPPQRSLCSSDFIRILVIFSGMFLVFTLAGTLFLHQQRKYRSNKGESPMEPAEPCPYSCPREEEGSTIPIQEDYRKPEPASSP", "test": "flow cytometry on HEK293F cells transfected with cynomolgus CD27, PE goat anti-human IgG, median MFI PE", "experimental": "as §1, §2"}, "[3]": {"target": "T1, human CD27, full length, on cells (T …)", "test": "flow cytometry on HEK293F cells transfected with human CD27, PE goat anti-human IgG, median MFI PE"}, "[4]": {"target": "T2, cynomolgus monkey CD27, full length, on …", "test": "flow cytometry on T cells in cynomolgus PBMC (endogenous CD27), PE goat anti-human IgG, median MFI PE", "experimental": "as §1, §2"}, "[5]": {"target": "T3, human C1q (from normal human serum) (human, UniProt P02745 23-245; P02746 28-253; P02747 29-245)", "T3 construct": "20% normal human serum was the source of C1q", "T3 sequence (P02745 23-245 limits assumed, chain 1 of 3)": "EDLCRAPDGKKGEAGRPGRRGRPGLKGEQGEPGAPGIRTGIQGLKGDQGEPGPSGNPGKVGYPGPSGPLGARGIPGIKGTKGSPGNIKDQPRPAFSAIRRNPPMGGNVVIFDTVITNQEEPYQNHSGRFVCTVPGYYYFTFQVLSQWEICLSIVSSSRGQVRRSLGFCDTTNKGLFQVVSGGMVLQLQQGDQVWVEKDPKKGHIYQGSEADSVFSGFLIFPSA", "T3 sequence (P02746 28-253 limits assumed, chain 2 of 3)": "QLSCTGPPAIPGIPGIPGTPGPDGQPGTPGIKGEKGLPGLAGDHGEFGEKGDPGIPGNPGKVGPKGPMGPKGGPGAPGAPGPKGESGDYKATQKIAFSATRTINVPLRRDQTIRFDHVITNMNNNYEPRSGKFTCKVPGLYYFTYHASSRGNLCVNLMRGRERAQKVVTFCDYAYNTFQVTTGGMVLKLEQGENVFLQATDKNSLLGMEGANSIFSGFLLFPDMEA", "T3 sequence (P02747 29-245 limits assumed, chain 3 of 3)": "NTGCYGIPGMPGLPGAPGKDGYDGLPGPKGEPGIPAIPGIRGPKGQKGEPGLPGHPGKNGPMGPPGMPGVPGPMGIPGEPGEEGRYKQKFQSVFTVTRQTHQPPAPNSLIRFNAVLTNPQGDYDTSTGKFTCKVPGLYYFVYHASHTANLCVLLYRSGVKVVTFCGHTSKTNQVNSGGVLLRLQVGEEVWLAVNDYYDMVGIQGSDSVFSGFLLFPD", "test": "flow cytometry, C1q (20% normal human serum) on human T cells pre-incubated with the antibody, FITC rabbit anti-human C1q, median MFI FITC; antibody concentration varied", "experimental": "The P329R mutation was previously described to reduce interaction of IgG1 antibodies with C1q and FcgR (Overdijk et al, Molecular Cancer Therapeutics 2020). The effect of the P329R mutation on C1q binding of IgG1-CD27-A comprising the E345R mutation was tested in cellular C1q binding assays in vitro using human healthy donor T cells. Anti-HIV gp120 antibody IgG1-b12-F405L was used as non-binding isotype control antibody (ctrl). […] T cells (2×10⁶ cells/well) were pre-incubated in polystyrene 96-well round-bottom plates with antibody dilution series (8× five-fold dilution starting at 15 μg/mL final assay concentration) for 15 min at 37° C. to allow the antibodies to bind to the T cells. Then, cells were cooled on ice, supplemented with NHS as a source of human C1q (20% NHS final assay concentration) and incubated on ice for 45 min. Cells were subsequently incubated on ice with FITC-labeled Rabbit anti-human C1q antibody (DAKO, Cat #F0254; 20 μg/mL) for 30 min and resuspended in FACS buffer with TO-PRO-3 (ThermoFisher, Cat #T3605; 1:5,000 dilution). C1q binding was determined by flow cytometry measuring the FITC signal on live cells."}},
  "data": [
    {"binder": "IgG1-CD27-A carrying F405L-L234F-L235E-D265A in the IgG Fc domain (antibody) heavy: QVQLMQSGSELKKPGASVKVSCRASGYTFTTYAMNWVRQAPGQGPEWMGWINTNTGNPTYAQGFTGRFVFSLDTTVTTTYLQISSLKAEDTAVYFCAREAGSFDYWGQGTLVTVSSASTKGPSVFPLAPSSKSTSGGTAALGCLVKDYFPEPVTVSWNSGALTSGVHTFPAVLQSSGLYSLSSVVTVPSSSLGTQTYICNVNHKPSNTKVDKRVEPKSCDKTHTCPPCPAPEFEGGPSVFLFPPKPKDTLMISRTPEVTCVVVAVSHEDPEVKFNWYVDGVEVHNAKTKPREEQYNSTYRVVSVLTVLHQDWLNGKEYKCKVSNKALPAPIEKTISKAKGQPREPQVYTLPPSREEMTKNQVSLTCLVKGFYPSDIAVEWESNGQPENNYKTTPPVLDSDGSFLLYSKLTVDKSRWQQGNVFSCSVMHEALHNHYTQKSLSLSPGK light: QSALTQPASVSGSPGQSITISCTGTSSDVYYYNYVSWYQQHPGRAPKLVIYDVSNRPSGVSNRFSGSKSGNTASLTISGLRAEDEADYYCSSYTVNRVWVFGGGTKLTVLGQPKAAPSVTLFPPSSEELQANKATLVCLISDFYPGAVTVAWKADSSPVKAGVETTTPSKQSNNKYAASSYLSLTPEQWKSHRSYSCQVTHEGSTVEKTVAPTECS", "values": [
      {"measurement": "EC50 (read off the curve)", "setting": "[1]", "result": "~0.04", "unit": "mg/L"},
      {"measurement": "EC50 (read off the curve)", "setting": "[2]", "result": "~0.06", "unit": "mg/L"},
      {"measurement": "EC50 (read off the curve)", "setting": "[3]", "result": "~0.1", "unit": "mg/L"},
      {"measurement": "EC50 (read off the curve)", "setting": "[4]", "result": "~0.04", "unit": "mg/L"}
    ]},
    {"binder": "IgG1-CD27-A (wild-type IgG1 Fc) (antibody, also called WT IgG1-CD27-A; IgG-CD27-A) heavy: not shown light: QSALTQPASVSGSPGQSITISCTGTSSDVYYYNYVSWYQQHPGRAPKLVIYDVSNRPSGVSNRFSGSKSGNTASLTISGLRAEDEADYYCSSYTVNRVWVFGGGTKLTVLGQPKAAPSVTLFPPSSEELQANKATLVCLISDFYPGAVTVAWKADSSPVKAGVETTTPSKQSNNKYAASSYLSLTPEQWKSHRSYSCQVTHEGSTVEKTVAPTECS", "values": [
      {"measurement": "binding result", "setting": "[5]", "result": "no binding (tested: 15 µg/mL)"}
    ]},
    {"binder": "IgG1-CD27-A-E345R (antibody, also called IgG-CD27-A-E345R) heavy: not shown light: QSALTQPASVSGSPGQSITISCTGTSSDVYYYNYVSWYQQHPGRAPKLVIYDVSNRPSGVSNRFSGSKSGNTASLTISGLRAEDEADYYCSSYTVNRVWVFGGGTKLTVLGQPKAAPSVTLFPPSSEELQANKATLVCLISDFYPGAVTVAWKADSSPVKAGVETTTPSKQSNNKYAASSYLSLTPEQWKSHRSYSCQVTHEGSTVEKTVAPTECS", "values": [
      {"measurement": "binding result", "setting": "[5]", "result": "binds"}
    ]},
    {"binder": "IgG1-CD27-A-E430G (antibody) heavy: not shown light: QSALTQPASVSGSPGQSITISCTGTSSDVYYYNYVSWYQQHPGRAPKLVIYDVSNRPSGVSNRFSGSKSGNTASLTISGLRAEDEADYYCSSYTVNRVWVFGGGTKLTVLGQPKAAPSVTLFPPSSEELQANKATLVCLISDFYPGAVTVAWKADSSPVKAGVETTTPSKQSNNKYAASSYLSLTPEQWKSHRSYSCQVTHEGSTVEKTVAPTECS", "values": [
      {"measurement": "EC50 (read off the curve)", "setting": "[5]", "result": "~0.03", "unit": "mg/L"}
    ]}
  ]
}
